Laboratory results reported in patent publication US20140328851A1.

How the values were obtained:
[1] = biological target: High-density lipoprotein (HDL) particles (human) (UniProt P02647); experiment: cell-based or functional assay
[2] = biological target: Low-density lipoprotein (LDL) particles (human) (UniProt P04114); experiment: negative-staining EM, HDL•CETP•LDL ternary complexes
[3] = biological target: Low-density lipoprotein (LDL) particles (human) (UniProt P04114); experiment: negative-staining EM, count of LDL•CETP complexes without antibody

decrease of mean HDL particle size after 4 hours (NS-EM), HDL/CETP/LDL co-incubation without antibody [1]: 25.8%
percent of LDL particles connected to HDL particles by a CETP bridge [2]: 25%
percentage of binary complexes (LDL•CETP) without H300 [3]: 38%
B1: Recombinant human CETP (cholesteryl ester transfer protein) (protein)
chain: CSKGTSHEAGIVCRITKPALLVLNHETAKVIQTAFQRASYPDITGEKAMMLLGQVKYGLHNIQISHLSIASSQVELVEAKSIDVSIQNVSVVFKGTLKYGYTTAWWLGIDQSIDFEIDSAIDLQINTQLTCDSGRVRTDAPDCYLSFHKLLLHLQGEREPGWIKQLFTNFISFTLKLVLKGQICKEINVISNIMADFVQTRAASILSDGDIGVDISLTGDPVITASYLESHHKGHFIYKNVSEDLPLPTFSPTLLGDSRMLYFWFSERVFHSLAKVAFQDGRLMLSLMGDEFKAVLETWGFNTNQEIFQEVVGGFPSQAQVTVHCLKMPKISCQNKGVVVNSSVMVKFLFPRPDQQHSVAYTFEEDIVTTVQASYSKKKLFLSLLDFQITPKTVSNLTESSSESVQSFLQSMITAVGIPEVMSRLEVVFTALMNSKGVSLFDIINPEIITRDGFLLLQMDFGFPEHLLVDFLQSLS
